# Source: the RNAGym collection of RNA variant scans (doi:10.1073/pnas.2313332121)
# This sample holds only a part of the variants without activity.
# B1: TPR 5TU (parent)
# chain: GGAUCUUCUCGAUCUAACAAAAAAGACAAAUCUGCCACAAAGCUUGAGAGCAUCUUCGGAUGCAGAGGCGGCAGCCUUCGGUGGCGCGAUAGCGCCAACGUUCUCAACUAUGACACGCAAAACGCGUGCUCCGUUGAAUGGAGUUUAUCAUG
# Variants of: B1
# Test: polymerase ribozyme fitness, log enrichment relative to wild type (log ratio); higher = more active; in vitro selection for triplet polymerase activity
# In short: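 Both subunits of a heterodimeric triplet polymerase ribozyme were given their own mutant library, built by PCR and transcribed. Each library was annealed with a biotinylated primer, the partner subunit and triplets, incubated frozen at −7 °C, and its extended constructs gel-excised, captured on streptavidin beads and amplified by RT-PCR, all in one round done in triplicate. Fitness is the logarithm of genotype enrichment relative to wild-type enrichment, with replicates averaged by inverse-variance weighting. That logarithm is base 2, and Illumina-sequenced genotypes needed ≥10 input reads and ≥1 read per output.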
row,Variant,polymerase ribozyme fitness (log ratio)
1,G94A A119C C132G A138U,≤ -4.2
2,C105U A113U,-1.37
3,U101G U144C,-1.9
4,U101G U144G,-0.737
5,C103A A120U G124A C125U,-2.03
6,C95U C96G,-0.577
7,C95U C96U,-1.18
8,A97U A119G U130C,0.572
9,U101G A137G,-1.31
10,G94A G140A,-3.51
11,A113G,-0.894
12,A113U,-1.59
13,A113C,-2.35
14,A97U U135G G140C,≤ -4.2
15,A115G A122U G124C,-1.96
16,C114U A142G,-2.95
17,C96G A120C U146C,-0.778
18,A97U U102C A138C,≤ -4.2
19,C96A A107G,-4.2
20,C96A A107U,-2.87
21,A115U A142C,-3.39

row,Variant,polymerase ribozyme fitness (log ratio)
1,A121C U139G G140A U144G,-4.07
2,C96G G143A,-2.42
3,C96G G143U,-3.01
4,A120G G124A,0.00161
5,C99G G152A,-2.39
6,C108U,-2.43
7,C96A A120G,0.0421
8,A107G,-2.92
9,A107C,-3.58
10,A107U,-3.06
11,G100A U146C,-4.17
12,G94A G136A,-0.0776
13,G94A G136U,-2.56
14,A97U G100A,-4.1
15,A106C C125G,-1.27
16,C99U C125U U144G,-0.905
17,G100A G136U A142U,≤ -4.2
18,C96U C114U,-2.66
19,A121G U148A,-3.78
20,C116A G136A,1.97
21,A119U U148A,-3.01

row,Variant,polymerase ribozyme fitness (log ratio)
1,C96G G141U,0.463
2,C105A A106G,-0.311
3,C105G C132A,-3.96
4,C95A G100U A106G A110G A142U,-4.01
5,C118U G124U A142C,-1.96
6,C95U A122C U130G U139A,-4.01
7,C96U C105G U144A,-1.81
8,C96G A121U,-0.582
9,A97U U144A,-1.56
10,A98U A115C G143A,-3.88
11,C114U A119U G143A,-3.89
12,A119G G143A,1.13
13,G126A G133C,-0.815
14,C118G A122G,-0.988
15,C96A A97U C118U,-0.741
16,G126A C149G,-3.13
17,C96U C118U,-0.211
18,C96G U148G,-4.12
19,C96G U148C,-1.42
20,A107U G133C,-3.72
21,A97U G141U,0.189

row,Variant,polymerase ribozyme fitness (log ratio)
1,C114G G141C U148A,≤ -4.2
2,C96A U104G,-0.932
3,C95A U144G,0.303
4,G94A A121U C132G U146A A150G,≤ -4.2
5,G94A C132G,-3.64
6,C105A A120G C123A C132U G136C,-3.32
7,C103A U139C,-3.89
8,C116A U148A,-3.52
9,C125U U145A,-1.23
10,C116U G141A U146C,0.219
11,A119G G128C,-1.98
12,C116A G141A,-2.34
13,C95A A98U U104G A106C,≤ -4.2
14,A110U A142U A150U,≤ -4.2
15,C96G G124A,-0.441
16,C96A C103A U135A U145A,-1.96
17,C93U U104A,-1.88
18,A121U G141A,0.973
19,U104G C118G,-1.89
20,G126A A150C,-4.16
21,C96U A110G,-3.55
